Experimental data published in article PMC4477602 (Journal of Biological Engineering, 2015).

Biological target: T1, Wild type Clone A, soluble, C-terminal His6
T1 chain: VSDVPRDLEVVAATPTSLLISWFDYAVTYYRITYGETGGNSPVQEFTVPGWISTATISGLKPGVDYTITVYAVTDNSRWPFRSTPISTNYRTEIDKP
Test: SEC; Superdex 75 10/300 GL, PBS pH 7.4, samples after Co2+ affinity resin; self-association (monomer, dimer, high MW oligomer in the void volume)
Conditions: both partners purified

B1: Wild type Clone A, soluble, C-terminal His6 (designed binder)
chain: T1 chain
modifications: Glu47 (printed 45) taken from the text's description of wild type CA; Fig. S2 prints Asp / Glu47 (printed 45) taken from the text's description of wild type CA; Fig. S2 prints Asp
stoichiometry N: 2
